Source: patent US20220403048A1, “BINDING MOLECULES TO ARGINASE II [ARG2]” (Cancer Research Technology Limited, priority 2019, published 2022)

Molecular target: T1, human ARG2 (trimer) (Homo sapiens, UniProt P78540)
T1 construct: human ARG2 (aa23-354); His10 (C); made in house; host or cells: E. coli BL21 (DE3)
T1 sequence (P78540 23-354): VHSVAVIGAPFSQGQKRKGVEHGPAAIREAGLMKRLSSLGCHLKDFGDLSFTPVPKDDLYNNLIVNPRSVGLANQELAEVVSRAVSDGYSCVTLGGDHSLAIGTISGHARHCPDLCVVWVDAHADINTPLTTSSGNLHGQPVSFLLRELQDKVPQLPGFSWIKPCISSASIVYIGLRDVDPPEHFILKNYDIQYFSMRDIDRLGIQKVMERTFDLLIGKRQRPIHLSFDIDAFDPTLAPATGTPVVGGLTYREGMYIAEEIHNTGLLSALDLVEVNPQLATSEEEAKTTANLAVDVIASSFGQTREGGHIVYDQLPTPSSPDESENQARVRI
Test: Mechanism of action study (effect on ARG2 Vmax and Km) in trimeric ARG2 enzyme inhibition assay
Type: biochemical
Conditions: for Km / Vmax: arginine 2.5-250 mM; for mode of action on ARG2: from effects on Vmax and Km
Text: The mechanism of action of enzyme inhibitors can be broadly divided into competitive, uncompetitive and non-competitive and can be identified as such based on their effects on Km and Vmax.
A competitive inhibitor binds only to free enzyme, often at the active site, causing the affinity of the enzyme for the substrate to be reduced (increased Km) with no change to the maximum enzyme rate (Vmax).
The enzyme's affinity for the substrate is increased (Km is decreased) and the maximum enzyme rate (Vmax) is decreased.
A non-competitive inhibitor binds equally well to free enzyme and enzyme-substrate complex. The enzyme's affinity for the substrate (Km) is unchanged and the maximum enzyme rate (Vmax) is decreased. […]
The mechanism of action of the lead identification clone C0021158 IgG was investigated using the human ARG2 (trimer) enzyme inhibition assay as well as isothermal titration calorimetry.
The enzyme inhibition assay is described in section 1.5 and is a biochemical assay that measures production of urea, the product of L-arginine turnover by ARG2. To investigate the mechanism of action of C0021158 IgG, four point titrations of C0021158 IgG (1000, 100, 30 and 10 nM) were set up in the presence of 11 concentrations of arginine ([…]) and the reaction allowed to proceed for 80, 60, 45, 30, 15 or 5 minutes before the addition of the urea detection reagents O-Phthaldialdehyde and N-(1-Napthyl)ethylenediamine.
Raw data from each separate concentration of C0021158 IgG was plotted as a function of time for each concentration of arginine and fitted using a linear fit (GraphPad Prism) to derive initial velocities (slope values).
Initial velocity data was plotted against arginine concentration for each concentration of C0021158 IgG (FIG. 15A). Each trace was fitted to the Michaelis-Menten model (Y=Vmax*X/(Km+X)) in GraphPad Prism to derive maximum velocity (Vmax) and enzyme/substrate affinity (Km) values at each inhibitor concentration (Table 23).
In the case of C0021158 IgG inhibitor Vmax decreased in the presence of C0021158 IgG inhibitor, ruling out a competitive mode of action and pointing towards an uncompetitive or a non-competitive mode of action. To distinguish non-competitive from uncompetitive modes of action the effect on Km must be assessed. […] This uncharacteristic profile led to poor fitting of the data making it difficult to derive an accurate Km. The lack of accurate Km data means C0021158 IgG cannot be assigned as uncompetitive or non-competitive.

B1: C0021158 IgG: anti-ARG2 antibody, VH SEQ ID NO: 282, VL SEQ ID NO: 287; IgG and Fab versions carry these sequences (antibody, listed as Homo sapiens, V domains shown)
VH: EVQLLESGGGLVQPGGSLRLSCAASGFTFRYEVAAWVRQAPGKGLEWVSAISGPIPKGYYADSVKGRFTISRDNSKNTLYLQMNSLRAEDTAVYYCARLRADLGLYMDLWGRGTLVTVSS
VL: QSVLTQPPSVSAAPGQKVTISCSGSSSNIGNHYVSWYQQLPGTAPKLLIYDNSERTAGVPDRFSGSKSGTSATLGITGLQTGDEADYYCGTWDELTSNLVFGGGTKLTVL
modifications: C0021158 IgG
Km (10 nM C0021158 IgG): 1640 µM
Vmax (10 nM C0021158 IgG): 148.5 AU ms^−1
Vmax (30 nM C0021158 IgG): 89.23 AU ms^−1
Km (100 nM C0021158 IgG): 590 µM
Vmax (100 nM C0021158 IgG): 112.8 AU ms^−1
Vmax (1 μM C0021158 IgG): 103.4 AU ms^−1
mode of action on ARG2: not competitive
mode of action on ARG2 (listed as C0021158 fab): allosteric inhibitor
